Target: T1, HGF (UniProt P14210 32-728, limits assumed)
T1 construct: also called hepatocyte growth factor
Assay: SPR, HGF on CM-5 chip, 10 µg/ml c-Met chimera injected
Description: Surface Plasmon Resonance (SPR) was also used to investigate the binding of the mAbs to the different llama-human c-Met chimeras. 3000 RU of 36C4, 48A2 and HGF were coupled on a CM-5 chip in 10 mM NaAc (pH4.5). 60 μl of a 10 μg/ml solution of the different c-Met chimeras was run over the chip at a flow rate of 30 μl/min and the association for 2 min was evaluated. The chip was regenerated with 20 mM NaOH and 1 M NaCl.

T1 sequence (P14210 32-728 limits assumed): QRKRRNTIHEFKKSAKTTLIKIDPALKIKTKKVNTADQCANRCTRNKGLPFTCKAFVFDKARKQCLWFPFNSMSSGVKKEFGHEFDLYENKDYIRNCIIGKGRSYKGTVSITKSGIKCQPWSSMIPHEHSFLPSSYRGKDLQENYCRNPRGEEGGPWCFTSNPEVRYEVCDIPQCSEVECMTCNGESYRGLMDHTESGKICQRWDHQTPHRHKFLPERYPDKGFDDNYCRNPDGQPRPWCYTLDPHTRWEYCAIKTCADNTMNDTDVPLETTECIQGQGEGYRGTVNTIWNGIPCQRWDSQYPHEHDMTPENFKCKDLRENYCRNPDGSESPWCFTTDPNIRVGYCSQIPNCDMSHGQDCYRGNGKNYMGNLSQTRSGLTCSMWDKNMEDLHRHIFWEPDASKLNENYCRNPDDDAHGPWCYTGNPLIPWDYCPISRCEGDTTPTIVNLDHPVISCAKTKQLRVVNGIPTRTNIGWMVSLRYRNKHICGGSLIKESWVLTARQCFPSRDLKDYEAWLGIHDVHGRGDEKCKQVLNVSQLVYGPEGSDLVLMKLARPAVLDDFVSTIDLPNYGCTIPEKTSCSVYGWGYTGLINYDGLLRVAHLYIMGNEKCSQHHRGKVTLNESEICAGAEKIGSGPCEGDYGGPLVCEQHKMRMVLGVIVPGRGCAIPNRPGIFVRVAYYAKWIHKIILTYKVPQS

binding result: binds
B1: LS1 (aa1-98) (receptor)
chain: ECKEALVKSRMNVNMQYQLPNFTAETRIQNVVLHKHHIYLGAVNYIYVLNDKDLQKVAEYKTGPVLEHPHCFPCEDCSHKANLSDGVWKDNINMALLVDTYYDDQLISCGSVNRGTCQRHVFPHNHTADIQSEVHCIFSPQIEEPSQCPDCVVSALGAKVLSSVKDRFINFFVGNTINSSYFPDHPLHSISVRRLKETKDGFMFLTDQSYIDVLPEFRDSYPIKYVHAFESNNFIYFLTVQRETLDAQTFHTRIIRFCSINSGLHSYMEMPLECILTEKRKKRSTKKEVFNILQAAYVSKPGAQLARQIGASLNDDILFGVFAQSKPDSAEPMDRSAMCAFPIKYVNDFFNKIVNKNNVRCLQHFYGPNHEHCFNRTLLRNSSGCEARRDEYRTEFTTALQRVDLFMGQFSEVLLTSISTFIKGDLTIANLGTSEGRFMQVVVSRSGPSTPHVNFLLDSHPVSPEVIVEHTLNQNGYTLVITGKKITKIPLNGLGCRHFQSCSQCLSAPPFVQCGWCHDKCVRSEECLSGTWTQQICLPAIYKVFPNSAPLEGGTRLTICGWDFGFRRNNKFDLKKTRVLLGNESCTLTLSESTMNTLKCTVGPAMNKHFNMSIIISNGHGTTQYSTFSYVDPVITSISPKYGPMAGGTLLTLTGNYLNSGNSRHISIGGKTCTLKSVSNSILECYTPAQTISTEFAVKLKIDLANRETSIFSYREDPIVYEIHPTKSFISGGSTITGVGKNLNSVSVPRMVINVHEAGRNFTVACQHRSNSEIICCTTPSLQQLNLQLPLKTKAFFMLDGILSKYFDLIYVHNPVFKPFEKPVMISMGNENVLEIKGNDIDPEAVKGEVLKVGNKSCENIHLHSEAVLCTVPNDLLKLNSELNIEWKQAISSTVLGKVIVQPDQNFT
notes: Ranges count on mature human c-Met
